The source of these data is patent US8951750B2 (BASF SE, priority 2007, dated 2015).

Where two headings read alike, the source gives them in different places.

The test system of one data set is C=CC(C)(C(=O)O)C(=O)O. As to the kind of experiment: purified protein, by the assay type. Conditions: other: 30° C., BTB assay, pH 7.2.
A further data set relates to C/C=C/C(C)(C(=O)O)C(=O)O. As to the kind of experiment: purified protein, by the assay type. Conditions: other: 30° C., BTB assay, pH 7.2.
Data set [1] relates to CC(C)=CC(C)(C(=O)O)C(=O)O. The experiment in a line: purified protein, by the assay type. To be noted: other: 30° C., BTB assay, pH 7.2.
Method: (§3) All kinetics assays were performed on an Anthos Zenyth 3100 96-well microplate reader. […] The reaction was initiated by addition of 10 μl of decarboxylase solution (0.002-0.02 mM, final concentration). The sensitivity of the reaction depends on the concentration of buffer, lower concentrations give higher sensitivity. The values of KM and kcat were calculated from spectophotometrical measurements at 620 nm of the resulting blue solution using Lineweaver-Burk plot and the following equations:
Data set [2] concerns CC/C=C/C(C)(C(=O)O)C(=O)O. As to the kind of experiment: purified protein, by the assay type. Conditions: other: 30° C., BTB assay, pH 7.2.
Method: as §3
Data set [3] deals with AMDase from Mesorhizobium sp. BNC1. The experiment in a line: BTB activity assay, alkenyl-substituted substrates of formula I. Format: biochemical. To be noted: 30° C. Here is the method:
(§1) This method involves measuring spectrophotometrically at 620 nm the change of yellow colour to green/blue of pH indicator—BTB with increasing concentration of [OH^−] formed during the decarboxylation reaction. […] More concentrated buffer (10 mM) gives better results with higher concentration of enzyme or quicker reactions since changes of colour are slower due to higher buffer capacity.
(§2) All kinetics assays were performed on an Anthos Zenyth 3100 96-well microplate reader. 10 μl of 20-500 mM phenylmalonate or methyl-phenylmalonate solution (pH adjusted to 7.2) was added to 180 μl of 5-10 mM MOPS buffer pH 7.2 containing 0.0186 mM bromothymol blue. The reaction was initiated by addition of 10 μl of decarboxylase solution (0.002-0.02 mM, final concentration). The sensitivity of the reaction depends on the concentration of buffer, lower concentrations give higher sensitivity. The values of KM and kcat were calculated from spectophotometrical measurements at 620 nm of the resulting blue solution using Lineweaver-Burk plot and the following equations: […]
A BTB activity assay was performed as described above. Compounds of formula I, wherein R^2 is methyl and R^1 is phenyl, ethenyl, propen-1-yl, buten-1-yl or 2-methylpropen-1-yl were tested as substrates.

Data set [4] is described as follows: BTB spectrophotometric assay of kinetic constants, substrate phenylmalonate. Format: biochemical. To be noted: for Km / kcat: substrate 2-phenylmalonic acid (1), His6-tagged enzyme, BTB method; for decarboxylase activity in words: substrate phenylmalonate 1, purified enzymes. Here is the method:
as §1, §2

Data set [5] can be described thus: BTB spectrophotometric assay of kinetic constants, substrate 2-methyl-2-phenylmalonate. The class given is biochemical. To be noted: for reaction with 2-methyl-2-phenylmalonic acid (2) (cell spans Km, kcat, kcat/Km) / Km / kcat: substrate 2-methyl-2-phenylmalonic acid (2), BTB method; for Km / kcat: His6-tagged enzyme. Here is the method: as §1, §2
Data set [6] in a line: In vitro decarboxylation of 2-methyl-2-phenylmalonate to 2-phenylpropanoic acid. Format: biochemical. To be noted: for absolute configuration of the product: 2-phenylpropionate product. Here is the method: [formula] [formula] [formula] h) In Vitro Decarboxylation of 2-methyl-2-phenylmalonate to 2-phenylpropanoic Acid by AMDase from Bordetella bronchiseptica and Asp/Glu Racemase from Mesorhizobium sp. BNC1.
To 400 μl of 0.1 M TRIS buffer pH 8, 100 μl of 0.5 M water solution (after adjusting pH to 8) of 2-methyl-2-phenylmalonic acid was added. Then 20 μl of an AMDase solution (10 mg/mL) was added and the reaction was stirred at 30° C. for 8 h. Products were extracted with diethyl ether after acidifying with 1 M HCl and methylated with TMS-diazomethane. The reaction was analyzed by GC (conversion up to 95%) and 2-phenylpropanoic acid formation confirmed by GC-MS, ^1H NMR. Both enzyme products (after methylation) had the same configuration (the same peak on GC with chiral column, ee>99%). Thus according to the literature^7 absolute configuration of the product was R.

Data set [7] is described as follows: In vivo plate assay for AMDase activity (BTB), substrate phenylmalonate. Format: cell-based. To be noted: E. coli expressing the enzyme. Here is the method:
Test Petri dishes were prepared using following medium: 1% tryptone, 0.5% yeast extract, 1% sodium chloride, 1% agar, 0.025% bromothymol blue (BTB). Then pH was adjusted to 6.5 and the medium autoclaved. When medium temperature reached 50-60° C. isopropyl-β-D-thiogalactopyranoside (1 mM, final concentration), kanamycin ([…], final concentration) and phenylmalonic acid (0.36%, final concentration) were added. 100 μl of liquid bacterial culture containing AMDase was plated on test Petri dishes. After 2-3 days of incubation at 37° C. the colonies and surrounding area changed colour to green-blue indicating AMDase activity.

For data set [8] the following is noted: substrate 2-phenylmalonic acid (1); literature data (footnote a, ref 6); cited from earlier work.
For data set [9] the following is noted: substrate 2-methyl-2-phenylmalonic acid (2); literature data (footnote a, ref 6); cited from earlier work.

Method for C=CC(C)(C(=O)O)C(=O)O: as §3

What is called Km is the concentration of substrate that gives half-maximal velocity. Broadly, the kcat is the number of substrate molecules converted per active site and unit of time at saturation. As usually defined, the kcat/Km is the second-order rate constant that governs catalysis at low substrate concentration. As to “AMDase from Bordetella bronchiseptica KU1201 (Bordetella bronchiseptica)”, the Michaelis constant (Km) with C=CC(C)(C(=O)O)C(=O)O is on record as 7.8 mM; in the data set on C/C=C/C(C)(C(=O)O)C(=O)O it was 12.8 mM; in data set [1] it was 3.5 mM; in [2], 14.4 mM. Also, the kcat came out at 42.8 s⁻¹ in the data set with C=CC(C)(C(=O)O)C(=O)O, 46.2 s⁻¹ in the data set on C/C=C/C(C)(C(=O)O)C(=O)O, 5.2 s⁻¹ in data set [1] and 23.9 s⁻¹ in data set [2]. Further, the kcat/Km was found to be 5500 M⁻¹ s⁻¹ in the data set on C=CC(C)(C(=O)O)C(=O)O, 3600 M⁻¹ s⁻¹ in the data set with C/C=C/C(C)(C(=O)O)C(=O)O, 1500 M⁻¹ s⁻¹ in data set [1] and 1600 M⁻¹ s⁻¹ in [2].

With `C=CC(C)(C(=O)O)C(=O)O` [compound 3, 2-methyl-2-vinylmalonic acid], in data set [3], the Michaelis-Menten constant (Km) turned out to be 19.4 mM and the kcat came out at 8.9 s⁻¹.

B1: protein NP_888076.1 from Bordetella bronchiseptica RB50: Putative decarboxylase [Bordetella bronchiseptica RB50], SEQ ID NO: 8 (protein, listed as Bordetella bronchiseptica)
chain: MPTPTQMKTTARYRPYAWRAKVGLIVPSTNTINEPEFYRLAPDGVTIHTGRAINAGPATQENYDRMARGVLEAADLIKTAEVDVVAYGCTSGSIVCSLDELCDGMSERVGVPAIATAGAVVAALRALGVRRVAVGTPYIDFVNQREREFLEQYGFEVVSIEGMDLGHTQEERRDIGRVPPQSTFQLARDIDRPQAEAIFLSCTNLATLDMIERIENELGKPVVTSNQATFWACLRLLGLSCAIPGYGRLLTDCLAPITRASYALALEHHHHHH
Take B1: in data set [4], the Michaelis-Menten constant (Km) came out at 10 mM, the catalytic constant (kcat) is 12.4 s⁻¹ and the “decarboxylase activity in words” value is “moderate activity”. Further, in data set [5], the “reaction with 2-methyl-2-phenylmalonic acid (2) (cell spans Km, kcat, kcat/Km)” value (from here on “reaction”) is “No reaction”.

B2: protein EAN08019.1 from Mesorhizobium sp. BNC1: Asp/Glu racemase [Mesorhizobium sp. BNC1], SEQ ID NO: 4, shown to have AMDase activity (protein, listed as Mesorhizobium sp.)
chain: MSAEDPVIGLIVPPAAGLVPPEAVAMYPEVTFHASGLGLKEMTPCGYAGVIDLVGDHAERHAQAGAQAVALMGTSLSFFRGAAFNAELITHMSNRSGLPATTMSQAVVDELKSHGARRIAVVTAYRQDVNNLLAAFLNEHGIEARSLKSLGITSVADVAGTPAKRLLQLCKEAVHDAGPVDAVLISCGGLHTLDVIVDVEISTGLPVVTSATAGVRGAVGLLKRSAETAEHATSKFLTGRALEHHHHHH
B2: the Km in data set [4] was 9.6 mM; in data set [5], 22.2 mM. In addition, the turnover number (kcat) is 118 s⁻¹ in [4] and 55.8 s⁻¹ in [5]. The “decarboxylase activity in words” value in [4] was “very efficient decarboxylase activity”; in data set [5] (substrate 2-methyl-2-phenylmalonate 2, purified enzymes), “very efficient decarboxylase activity”. The “absolute configuration of the product” value in [6] is listed as “R-configuration”. Also, the “ee of 2-phenylpropanoic acid product” value in [6] (GC with chiral column after methylation) is recorded as greater than 99%.

B3: protein BAA30082.1 from Pyrococcus horikoshii OT3: Hypothetical arylmalonate decarboxylase [Pyrococcus horikoshii OT3], SEQ ID NO: 6 (protein, listed as Pyrococcus horikoshii)
chain: MYGWRRRIGLIVPSSNTTMEPEFWKMAPEGVSIHTARMRLREVTEESLLEMERHAKDAALELADAEVDVIVYGCTSGSLIKGKGYDKEIAKNLEEASGIKTITTSTAVLNALNTLDIQKVVVATPYIDSVNEREKEFLEANGIEVLRIKGLGIVKNTEIGRQEPWVAYKLALEVYTPEADGLFISCTNFRTIEIIDKLEVELGVPVVTSNQATMWYALKTMKVKEKYDMYGTLLKEKLLEHHHHHH
B3: in data set [4], the Km came to 41.7 mM, the turnover number (kcat) amounted to 0.09 s⁻¹ and the “decarboxylase activity in words” value is on record as “very low levels of activity”. Further, the “reaction” value in [5] is recorded as “No reaction”. In addition, the “colour change of BTB indicator (decarboxylase activity)” value (“colour change of BTB indicator” for short) in data set [7] is on record as “only slow development of colour”.

B4: protein ZP_00801202.1 from Alkaliphilus metalliredigenes QYMF: Asp/Glu racemase [Alkaliphilus metalliredigenes QYMF], SEQ ID NO: 10 (protein)
chain: MSDFSYGGRAKIGLIYPAPGWVMEPEFYLMAPWGVSTYTTRISLKHVNVAELRKLGDQSVEAAELLAQAPLDVIALGCTSGSFVNGSRYDQELIEKMEGVSGGIPCTTTSTAVVAALKALHVTKIAVATPYIDEVNLKAKNFLEAEGLDVVNIKGLGLLQDIEIDRQDMETVYRLAKEVDHVEAQAIVILCTGLRSVPIIEALENDLGKPVISAIQATFWHCLRLSGVRENVEGYGSLLRIEGLLEHHHHHH
modifications: Alkaliphilus metalliredigenes
On to B4, for which, in data set [4], the catalytic constant (kcat) came out at 0.26 s⁻¹ and the “decarboxylase activity in words” value is “very low levels of activity”. In addition, in data set [5], the “reaction” value is “No reaction”. Moreover, the “colour change of BTB indicator” value in data set [7] is “only slow development of colour”.

B5: AMDase from Bordetella bronchiseptica: arylmalonate decarboxylase from Bordetella bronchiseptica, SEQ ID NO: 2, Blast entry BAA02419.1 (protein, listed as Bordetella bronchiseptica)
chain: MQQASTPTIGMIVPPAAGLVPADGARLYPDLPFIASGLGLGSVTPEGYDAVIESVVDHARRLQKQGAAVVSLMGTSLSFYRGAAFNAALTVAMREATGLPCTTMSTAVLNGLRALGVRRVALATAYIDDVNERLAAFLAEESLVPTGCRSLGITGVEAMARVDTATLVDLCVRAFEAAPDSDGILLSCGGLLTLDAIPEVERRLGVPVVSSSPAGFWDAVRLAGGGAKARPGYGRLFDESLEHHHHHH
For the molecule B5, the Michaelis constant (Km) in data set [4] is 10.7 mM; in data set [8], 13.9 mM; in [9] it was 25.5 mM; in data set [5], 26.9 mM. Also, the kcat was 316.1 s⁻¹ in [4], “(353)^a ^ s^−1” in data set [8], “(29.8)^a s^−1” in [9] and 278.9 s⁻¹ in [5]. Further, the “absolute configuration of the product” value in data set [6] was “R-configuration”. For the same molecule, in [7], the “colour change of BTB indicator” value is “clear change in colour from yellow to blue”.
